Some results are limits rather than exact numbers.

The values that follow come from US20220144922A1 (Adimab, published 2022).

The target of assay [1] is T1, prefusion-stabilized RSV F ectodomain (DS-Cav1), subtype B (respiratory syncytial virus subtype B).
T1 construct: extracellular domain; also called Prefusion subtype B
Nature of the assay: BLI, IgG on sensor. On the technique in general: BLI is a label-free optical method that tracks binding on a fibre tip over time.
Experimental: IgG binding to DS-Cav1 and FA FP was determined by BLI measurements using a FortéBio Octet HTX instrument (Pall Life Sciences). […] Data was analyzed using the ForteBio Data Analysis Software 7. The data was fit to a 1:1 binding model to calculate an association and dissociation rate, and KD was calculated using the ratio kd/kₐ.

Assay [2] concerns the target RSV F protein of subtype A strain A2, on virus (respiratory syncytial virus subtype A …, UniProt P03420 26-574). Nature of the assay: cell-based or functional assay.
The target in assay [3] is RSV F protein of subtype B strain 18537, on virus (respiratory syncytial virus subtype B …, UniProt P13843 26-574). The experiment in a line: cell-based or functional assay.

B1: ADI-15631 (antibody, V domains shown)
VH: QVQLVESGGGLVQPGRSLRLSCAASGFTFDNYPMHWIRQAPGKGLEWVSGISWHSGSIGYADSVKGRFTISRDNAKNSLYLQMNSLRTEDTALYYCAKDAHYFDNSGHYYYGLDVWGQGTTVTVSS
VL: EIVLTQSPATLSVSPGERATLSCRASQNIINNLAWYQQKPGQAPRLLISGASTRATGIPARFSGSGSGTEFTLTITSLQSEDFAVYYCQQYNNWPLTFGGGTKVDIK
notes: IgG
In the case of B1, the Kd in assay [1] is 0.552 nM. Besides, the “Neut IC50 (ug/ml) subtype A” value in assay [2] turned out to be 0.099 µg/mL. Moreover, in assay [3], the “Neut IC50 (ug/ml) subtype B” value stood at 0.207 µg/mL.

B2: ADI-15624 (antibody, V domains shown)
VH: QVQLVQSGGGLVKAGGSLRLSCAASGFTISGFYMTWIRQAPGKGLEWVSSISGSSSYTNYADSVKGRFTISRDNAKNSLYLHMNSLRAEDTAVYYCARIRPDDSSGYPDYWGQGTLVTVSS
VL: QSVLTQPPSVSGAPGQRVTISCTGSSSNIGAGYDVHWCQQLPGTAPKLLIYGNNNRPSGVPDRFSGSKSGTSASLAITGLQAEDEADYYCQSYDSSLSGFVFGTGTKVTVL
notes: IgG; also called Antibody Number 189
In assay [1], B2 displayed a Kd of 0.407 nM. For the same molecule, the “Neut IC50 (ug/ml) subtype A” value in assay [2] turned out to be 0.051 µg/mL. Moreover, in assay [3], the “Neut IC50 (ug/ml) subtype B” value was 0.033 µg/mL.

B3: ADI-15638 (antibody, V domains shown)
VH: EVQLVESGGGLVKPGGSLRLSCAASGFTITSYGMNWVRQAPGKGLEWVSSISSSSSFIHYGDSVKGRFTISRDNAKNSLYLQMNSLRAGDTAVYYCVRDSGHQDYRGDYWGQGTLVTVSS
VL: QSVVTQPPSVSGAPGQRVSISCTGSSSNIGAGYDVHWYQQLPGTAPKLLIYTNNNRPSGVPDRFSGSKSGTSASLAINGLQAEDEADYYCQSYDRSLSGWVFGGGTKLTVL
notes: IgG
Molecule B3 had a Kd in assay [1] of 0.402 nM. Besides, the “Neut IC50 (ug/ml) subtype A” value in assay [2] was found to be 0.178 µg/mL. The “Neut IC50 (ug/ml) subtype B” value in assay [3] is > 10 µg/mL.

B4: ADI-15620 (antibody, V domains shown)
VH: QVQLVQSGAEVKKPGASVKVSCKASGYTFTSYDINWVRQATGHGLEWMGWMSPNSGYTGYAQKFQGRVTMSRNTSTGTAYMELSSLRSEDTAVYYCAREARDLRVGATNFDYWGQGTLVTVSS
VL: QPVLTQPPSVSVSPGQTASITCSGDKLGDKYISWYQQRPGQSPVMVIYQDSKGPSGIPERFSGSNSGNTATLTISGTQAMDEADYYCQAWDSSIDVVFGGGTKLTVL
notes: IgG
B4: binding in assay [1] was put at a Kd of 1.4 nM. Besides, the “Neut IC50 (ug/ml) subtype A” value in assay [2] was 0.077 µg/mL. Also, the “Neut IC50 (ug/ml) subtype B” value in assay [3] came out at 0.053 µg/mL.

B5: ADI-15622 (antibody, V domains shown)
VH: QVQLQESGGGLVQPGGSLRLSCSASGFTFSNYGMSWVRQAPGKGLEWVSGIGVSDGSTHYADSVKGRFIISRDNSKNMLSLQMSSLGVDDTAVYYCARIVIVGVLRFQEWLSSDGMDVWGQGTTVTVSS
VL: DIVMTQTPSSVSASVGDRVTITCRASQAISGGLAWYQQKAGKAPKLLIYAASNLPSGVPSRFSGSGSGTDFTLTISSLQPEDFATYYCQQANSFPFTFGQGTRLEIK
notes: IgG; also called Antibody Number 187
In assay [1], B5 gave a Kd of 1.51 nM. Moreover, in assay [2], the “Neut IC50 (ug/ml) subtype A” value came to 0.544 µg/mL. The “Neut IC50 (ug/ml) subtype B” value in assay [3] amounted to 1.37 µg/mL.

B6: ADI-15637 (antibody, V domains shown)
VH: QVQLVQSGAEVTKPGASVRVSCKFSAYTLSALSIHWVRQAPGKGLEWMGAFDPEDGEPIYSQHFQGRVTMTEDTSTQTAYMELNSLRSEDTAVYYCSSVGPAGWFDPWGQGTLVTVSS
VL: DIRLTQSPSSLSASVGDRVSITCRASQSISSYLHWYQQKPGKAPKLLIYAASSLQSGVPSRFSGSGSGSDFTLTISSLQPEDFATYYCHQSYIPPFTFGPGTKLEIK
notes: IgG; also called Antibody Number 202
For B6, the Kd in assay [1] came to 6.13 nM. Moreover, the “Neut IC50 (ug/ml) subtype A” value in assay [2] is 0.357 µg/mL. Moreover, the “Neut IC50 (ug/ml) subtype B” value in assay [3] stood at 1.05 µg/mL.

B7: ADI-15621 (antibody, V domains shown)
VH: QVQLVQSGPEMKKPGSSVKVSCKPSGGTFSSYSVSWVRQAPGQGLEWMGGIIPIFGSSDYAQKFQGRLTITEDESTKTSYMQLNNLTSDDTAIYFCARDNYYVWTGHYPEFDFWGQGTLVTVSS
VL: ETTLTQSPGTLSLSLGETATLSCRASQSVRSDYLAWYQQKPGQAPRLLISGASNRATAIPERFTGSGSGTDFTLTISSLEPADFAVYYCQQYGSTPITFGQGTRLEIK
notes: IgG; also called Antibody Number 186
Regarding B7, in assay [1], binding was characterised by a dissociation constant (Kd) of 0.555 nM. Further, in assay [2], the “Neut IC50 (ug/ml) subtype A” value was 0.018 µg/mL. Besides, the “Neut IC50 (ug/ml) subtype B” value in assay [3] worked out at 0.021 µg/mL.

B8: ADI-15559 (antibody, V domains shown)
VH: QVQLVQSGAEVKKPGSSVKVSCKASGGSLSTYGIHWVRQAPGQGLEWVGGVMTVYGKTTYGQNFQGRVTIAVDRSTNTAYMELSSLTSDDTGTYYCATDSYYVWTGSYPPPFDLWGQGTLVTVSS
VL: EIVLTQTPGTQSLSPGQSATLSCRASHSVGNDYLAWYQQKPGQSPRLLIHGAYRRDSGIPDRFIGSGSGTDFTLTIDSLEPDDCAVYYCQQYGSWPLTFGGGTKVDIK
notes: IgG; also called Antibody Number 130
B8 gave a Kd in assay [1] of 0.98 nM. The “Neut IC50 (ug/ml) subtype A” value in assay [2] is 0.008 µg/mL. The “Neut IC50 (ug/ml) subtype B” value in assay [3] was found to be 0.006 µg/mL.

B9: ADI-15642 (antibody, V domains shown)
VH: EVQLVESGGGLIQPGGSLRLSCAASGFTVSSKYMSWVRQAPGKGLEWVSIIYSGGSTYHADSVKGRFTISRDNSKNTLYLQMNSLRAEDTAVYYCARDDYDFWSGNGPPEMAVWGQGTTVTVSS
VL: DIRMTQSPSSLSASVGDRVTITCRASQGISNYLAWYQQKPGKVPKLLIYAASTLQSGVPSRFSGSGSETDFTLTISSLQPEDVATYYCQKYNSVPLTFGQGTKVEIK
notes: IgG; also called Antibody Number 206
In the case of B9, in assay [1], the Kd was 2.81 nM. The “Neut IC50 (ug/ml) subtype A” value in assay [2] was determined as 0.499 µg/mL. Also, the “Neut IC50 (ug/ml) subtype B” value in assay [3] was 0.005 µg/mL.

B10: ADI-15650 (antibody, V domains shown)
VH: EVQLVESGGGLIQPGGSLRLSCAASGFTVSSKYMSWVRQAPGKGLEWVSIIYSGGSTYYADSVKGRFTISRDNSKNTLYLQMNSLRAEDTAVYYCARDDYDFWSGNGPPEMAVWGQGTTVTVSS
VL: DMRLTQSPSSLSASVGDRVTITCRASQGISNYLAWYQQRPGKVPQLLIYTASTLQSGVPSRFSGSGSETDFTLTISSLQPEDVATYYCQKYDSVPLTFGQGTKVEIK
notes: IgG; also called Antibody Number 214
Molecule B10 returned a Kd in assay [1] of 3.52 nM. Besides, the “Neut IC50 (ug/ml) subtype A” value in assay [2] amounted to 8.3 µg/mL. Moreover, in assay [3], the “Neut IC50 (ug/ml) subtype B” value stood at 0.016 µg/mL.

B11: ADI-15625 (antibody, V domains shown)
VH: EVQLVESGAEVRKPGASVQVSCKASGYTFTSYYMHWVRQAPGHGLEWMGMIYPSGGSTSYAQKFQGRVTMTRDTSTSTVYMELSSLRSEDAAVYYCARDRAGCSGGSCYYYGMDVWGQGTTVTVSS
VL: NFMLTQPPSVSVSPGQTASITCSGNKLGDKYACWYQQKPGQSPVLVISQDSKRPSGIPERFSGSNSGNTATLTISGTQAMDEADYYCQAWDSRTVVFGGGTKLTVL
notes: IgG; also called Antibody Number 190
As for B11, in assay [1], the Kd was 2.61 nM. Besides, the “Neut IC50 (ug/ml) subtype A” value in assay [2] worked out at 0.239 µg/mL. The “Neut IC50 (ug/ml) subtype B” value in assay [3] was 1.2 µg/mL.

B12: ADI-15583 (antibody, V domains shown)
VH: QVQLVQSGAEVKKPGESLKISCKTSGYKFTNYWIGWVRQMPGKGLEWMGIIYPGDSDARYSPSFQGQVTFSADKSISTAYLQWSSLKASDTAMYYCARQDNSGWADFFPFDYWGQGTLVTVSS
VL: ETTLTQSPGTLSLSPGERATLSCRASHSFSSSYLAWYQQKPGQAPRLLIYAASNRATGIPDRFSGSGSGTDFTLTISRLEPEDFAVYFCQQYDSSPWTFGQGTKVEIK
notes: IgG
The molecule B12 came in with a Kd in assay [1] of 0.351 nM. In addition, in assay [2], the “Neut IC50 (ug/ml) subtype A” value worked out at 0.443 µg/mL. The “Neut IC50 (ug/ml) subtype B” value in assay [3] was 0.377 µg/mL.

B13: ADI-15643 (antibody, V domains shown)
VH: QVQLVQSGAEVKKPGESLKISCKTSGYRFTNYWIGWVRQMPGKGLEWMGIIYPGDSDARYSPSFQGQVTFSADKSISTAYLHWSSLKASDTAMYYCARQDDSGWADFFPFDYWGQGTLVTVSS
VL: EIVLTQSPGTLSLSPGERATLSCRASHSFSSTYLAWYQQKPGQAPRLLIYAASNRATGIPDRFSGSGSGTDFTLTISRLEPEDFAVYFCQQYDSSPWTFGQGTKLEIK
notes: IgG
Take B13: the Kd in assay [1] is 0.162 nM. Further, the “Neut IC50 (ug/ml) subtype A” value in assay [2] turned out to be 0.039 µg/mL. Moreover, the “Neut IC50 (ug/ml) subtype B” value in assay [3] turned out to be 0.115 µg/mL.

Broadly, the Kd is the equilibrium constant for the complex coming apart. A lower Kd goes with tighter binding.
